The values below come from the nanobody polyreactivity screen of Harvey et al. (2022).

A short description of this data set: yeast display, Sf9 membrane polyspecificity reagent, FACS + sequencing; frameworks hold sequencing errors. The essentials:
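Galactose induction of a Saccharomyces cerevisiae BJ5465 synthetic nanobody display library ran 36–48 hours. The cells were then stained for 1 hour at 4 °C with 10% biotinylated, detergent-solubilized Sf9 membrane reagent, pulled down on streptavidin microbeads and FACS-sorted into low and high (top ~1%) gates on expression and reagent-binding fluorescence. Labels for polyreactivity follow the gate of origin.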
Take “QVQLVESGGGLVQAGGSLRLSCAASGSICGWYVLGWYRQAPGKEMELVAAITWSAARTYYADSVKGRFTISRDNAKITVYLQMNSLKPEDTAVYYCAADHVSYQPSCRIFDYWGQGTQVTVSS”: the “polyreactivity (PSR sort gate)” value is “low polyreactivity”. For “QVQLVESGGGLVQAGGSLRLSCAASGSICRSYAMGWYRQAPGKERELVASITRSYGSTYYADSVKGRFTISRDNAKNTVYLQMNSLKPEDTAVYYCNAVVSKSRRFRVDYWGHGTQVTVSS”, the “polyreactivity (PSR sort gate)” value is “high polyreactivity”.

As to “QVQLVESGGGLVQAGGSLRLSCAASGSICVRNTMGWYRQAPGKERELVAAISSRGTSTYYADSVKGRFTISRDNAKNTVYLQMNSLKPEDTAVYYCAARVYPYNSWGQGTQVTVSS”, the “polyreactivity (PSR sort gate)” value is “high polyreactivity”. The value for “QVQLVESGGGLVQAGGSLRLSCAASGSICYSNARGWYRQAPGKERELVAAISFTGGTTYNADSVKGRFTISRDNAKNTVYLQMNSLKPEDTAVYFCNKLYHHYYGYWGQGTQVTVSS” was “high polyreactivity”; that for “QVQLVESGGGLVQAGGSLRLSCAASGSIFAANTMGWYRQAPGKERELVATISWSSGRTRYADSVKGRFTISRDNAKNTVYLQMNSLKPEDTAVYYCAARYYYSRSRLYYYWGQGTQVTVSS” was “high polyreactivity”; that for “QVQLVESGGGLVQAGGSLRLSCAASGSIFAAYTMGWYRQAPGKERELVAAISVSTVSTYYADSVKGRFTISRDNAKNTVYLQMYSLKPEDTAVDYCNADATDSYPEKDEHDSWGQGTQVTVSS” was “low polyreactivity”. The value for “QVQLVESGGGLVQAGGSLRLSCAASGSIFAAYTMGWYRQAPGKERELVATISSGGSTYYADSVKGRFTISRDNAKNTVYLQMNSLKPEDTAVYYCAAVIGNWQYQYYYWGQGTQVTVSS” was “low polyreactivity”; that for “QVQLVESGGGLVQAGGSLRLSCAASGSIFADNAMGWYRQAPGKERELVAAITWSGGSTYYADSVKGRFTISRDNAKNTVYLQMNSLKPEDTAVYYCNADDAVEYSYGGGTEFYYWGQGTQVTVSS” was “low polyreactivity”; that for “QVQLVESGGGLVQAGGSLRLSCAASGSIFADYAMGWYRQAPGKERELVAAITGSGGRTYYADSVKGRFTISRDNAKNTVYLQMNSLKPEDTAVYYCAVRHRYTRAYWGRDYWGQGTQVTVSS” was “low polyreactivity”. The value for “QVQLVESGGGLVQAGGSLRLSCAASGSIFADYAMGWYRQAPGKERELVAGISGRGGRTYYADSVKGRFTISRDYAKNTVYLQMNSLKPEDTAVYYCAAKYNYYTWPTRYTATGYYYWGQGTQVTVSS” was “high polyreactivity”; that for “QVQLVESGGGLVQAGGSLRLSCAASGSIFADYVMGWYRQAPGKDRELVAAITRRGRTYYADSVKGRFTISRDNAKNTVYLQMNSLKPEDTAVYYCAKVGSGNIDSWGQGTQVTVSS” was “low polyreactivity”; that for “QVQLVESGGGLVQAGGSLRLSCAASGSIFADYVMGWYRRAPGKERELVAAITRRGRTYYADSVKGRFTISRDNAKNTVYLQMNSLKPEDTAVYYCAKVASGKIDSWGQGTQVTVSS” was “low polyreactivity”. Consider “QVQLVESGGGLVQAGGSLRLSCAASGSIFAEYAMGWYRQAPGKERELVAAITTSGSTNYADSVKGRFTISRDNAKNTVYLQMNSLKPEDTAVYYCNALFQQRYLDSSGEYWGQGTQVTVSS”, for which the “polyreactivity (PSR sort gate)” value is “low polyreactivity”. To “QVQLVESGGGLVQAGGSLRLSCAASGSIFAFYAMGWYRQAPGKERELVAAITASGGRTYYADSVKGRFTISRDNAKNTVYLQMNSLKPEDTAVYYCAAVGGATYSWNGTFLYDYDYWGQGTQVTVSS” belongs “low polyreactivity”. The value for “QVQLVESGGGLVQAGGSLRLSCAASGSIFAFYAMGWYRQAPGKERELVAVISASGGSTYYADSVKGRFISRDNAKNTVSLQMNSLKPEDTAVYYCAAGTSTNSGTVPEEEDYWGQGTQVTVSS” was “low polyreactivity”; that for “QVQLVESGGGLVQAGGSLRLSCAASGSIFAGNAMGWYRQAPGKERELVAAITWSGGSTYYADSVKGRFTISRDNAKNTVYLQMNSLKPEDTAVYYCAADPPGYVYGKRYYWGQGTQVTVSS” was “high polyreactivity”. The value for “QVQLVESGGGLVQAGGSLRLSCAASGSIFAGNVMGWYRQAPGKERELVAAISRRGGRTYYADSVKGRFTISRDNAKNTVYLQMNSLKPEDTAVYYCAARRDPVLGKSDYWGQGTQVTVSS” was “high polyreactivity”.

For “QVQLVESGGGLVQAGGSLRLSCAASGSIFAGYAMGWYRQAPGKERELVAAISRSGGRTYYADSVKRRFTISRDNAKNTVNLQMNSLKPEDTAVYYCAAHRRSANDYDYWGQGTQVTVSS”, the “polyreactivity (PSR sort gate)” value was “high polyreactivity”. To “QVQLVESGGGLVQAGGSLRLSCAASGSIFAHYTMGSYRQAPGKEREFVAAITKSGGRTYYADSVKGRFTISRDNAKNTVYLQMNSLKPEDTAVYYCARRRTIPYTLVDYDSWGQGTQVTVSS” belongs “low polyreactivity”; to “QVQLVESGGGLVQAGGSLRLSCAASGSIFAINTMGWYRQAPGKERELVAAITSGGSTYYSDSVKGRFTISRDNAKNTVYLQMNSLKPEDTAVYYCAATPIGQHFTVDYWGQGTQVTVSS”, “low polyreactivity”. The value for “QVQLVESGGGLVQAGGSLRLSCAASGSIFALYAMGWYRQAPGKERELVAAIDWSDGGTYYADSVKGRFTISRDNAKNTVYLQMNSLKPEDTAVYYCAADQYWDGYDFLYDYWGQGTQVTVSS” was “low polyreactivity”; that for “QVQLVESGGGLVQAGGSLRLSCAASGSIFALYAMGWYRQAPGKERELVAAISYRGGRTYYADSVKGRFTISRDNAKNTVYLQMYSLKPEDTAVYNCATDFPGKFDYWGQGTQVTVSS” was “low polyreactivity”; that for “QVQLVESGGGLVQAGGSLRLSCAASGSIFALYTMGWYRQAPGKERELVAAISRRGGKTYYADSVKGRFTISRDNAKNTVYLQMNSLKPEDTAVYYCNADRLRSTHDYWGQGTQVTVSS” was “high polyreactivity”.

In the case of “QVQLVESGGGLVQAGGSLRLSCAASGSIFALYTMGWYRQAPGKEREMVAAISRRGGNKYYADSVKGRFTISRDNAKNTVYLQMNRLKPEDTAVYYCNADRLRSTHDYWGQGTQVSVSS”, the “polyreactivity (PSR sort gate)” value is “high polyreactivity”.

As to “QVQLVESGGGLVQAGGSLRLSCAASGSIFAPNAMGWYRQAPGKERELVAAISRSGGRTYYADSVKGRFTISRDNAKNTVYFQMNSLKPEDTAVYYCAADYKHQRTYGSWGQGTQVTVSS”, the “polyreactivity (PSR sort gate)” value is on record as “high polyreactivity”. The value for “QVQLVESGGGLVQAGGSLRLSCAASGSIFAQYAMGWYRQAPGKERELVATISSVGSTNYADSVKGRFTISRDNAKNTVYLQMNSLKPEDTAVYYCAARYPVGRSPRAYEYWGQGTQVTVSS” was “low polyreactivity”.

Turning to “QVQLVESGGGLVQAGGSLRLSCAASGSIFAQYGLGWYRQAPGKERELVADISGPGVSTYYADSVKGRFTISRDNAKNTVYLQMNSLKPEDSAVYYCAADYYYPYYWGQGTQVTVSS”, the “polyreactivity (PSR sort gate)” value is given as “low polyreactivity”. The value for “QVQLVESGGGLVQAGGSLRLSCAASGSIFARYAMGWYRQAPGKERELVATISYRGSSTYYADSVKGRFKISRDNAKNTVYLQMNRLKPEDTAVYSCAARTYRRIYAYYRLDYWGQGTQVTVSS” was “low polyreactivity”; that for “QVQLVESGGGLVQAGGSLRLSCAASGSIFARYTMGWYRQAPGKERELVARITSSGGSTYYADSVKGRFTISRDNAKNTVYLQMNSLKPEDTAVYYCNKAYRYYWRMEYWGQGTQVTVSS” was “high polyreactivity”. To “QVQLVESGGGLVQAGGSLRLSCAASGSIFASNSMGWYRQEPGQERELVAAINSGDSTNYADTVKGRFTISRDTAKNTVYLQMNSLKPEDTAVYYCARGLEERYDYWGQRTQVTVSS” belongs “low polyreactivity”; to “QVQLVESGGGLVQAGGSLRLSCAASGSIFASYALGWYRQAAGKEREFVAAISQSGSRTYNADSVKGRFTISRDNANNTVSLHMNSLKPEDTAVYYCNAKRGTWNYDYWGQGTQVTVSS”, “high polyreactivity”. Regarding “QVQLVESGGGLVQAGGSLRLSCAASGSIFASYAMGWYRQAPGKERELVAAISRRAVRTYYADSVKGRFTISRDNAKNTVYLQMNSLKPEDTAVYYCNAASSLPGYDYWGQGTQVTVSS”, the “polyreactivity (PSR sort gate)” value is listed as “high polyreactivity”. The value for “QVQLVESGGGLVQAGGSLRLSCAASGSIFASYAMGWYRQAPGKERELVAAITRGGRTNYADSVKGRFTISRDNAKNTVYLQMNSLKPEDTAVYYCAKQYALVWRGYIYGYWGQGTQVTVSS” was “high polyreactivity”. The value for “QVQLVESGGGLVQAGGSLRLSCAASGSIFASYAMGWYRQAPGKESELVAAITYSGSRTYYADSVKGRFTISRYNAKNTVYLQMNSMKPEDTAVYYCNADYYWYPYEDDYWGQGSQVTVSS” was “low polyreactivity”. To “QVQLVESGGGLVQAGGSLRLSCAASGSIFASYAMGWYRQEPGKERELVAAISRRAVRTYYADSVKGRFTISRDNAQNTVYLQMNSLKPEDTAVFYCAKDYRDWRKYDFWGQGTQVTVSS” belongs “high polyreactivity”; to “QVQLVESGGGLVQAGGSLRLSCAASGSIFATNAMGWYRQAPGKERELVAAISRSGASTYYADSVKGRFTISRDNAKNTVYLQMNSLKPEDPAVYYCNKVLYRDAYHSYGFDYWGQGTQVTVSS”, “high polyreactivity”.

On to “QVQLVESGGGLVQAGGSLRLSCAASGSIFATNAMGWYRQAPGKERELVATITNSGASTSYADSVKGRFTISRDNAKNTVYLQMNSLKPEDTAVYYCNAYGYRAYGVRGYTYGYDYWGQGTQVTVSS”, for which the “polyreactivity (PSR sort gate)” value is recorded as “low polyreactivity”. To “QVQLVESGGGLVQAGGSLRLSCAASGSIFATYAMGWYRQAPGKEMELVAVISCGGGRTNYADSVKGRFTISRDNAKNTVYLQLNSLKPEDTAVYYCAAGGYWRIATDGPRGGDYWGQGTQVTVSS” belongs “high polyreactivity”; to “QVQLVESGGGLVQAGGSLRLSCAASGSIFAVNPMGWYRQAPGKERELVASITSGGSTNYADSVKGRFTISRDNAKIRVYLQMNRLKPEDTAVYYCNADSVRAVSRYDYWGQGTQVTVSS”, “low polyreactivity”. The value for “QVQLVESGGGLVQAGGSLRLSCAASGSIFAVNTMGWYRQAPGKERELVAAISQRGSSTYYADSVKGRFTISRDNAKNTVYLKMNSMKPEDTAVFFCAKRFIYGLYNYWGQGTQVTVSS” was “high polyreactivity”; that for “QVQLVESGGGLVQAGGSLRLSCAASGSIFAWNAMGWYRQAPGKERELVATIRSTGGSTYYADSVKGRFTISRDNAKNTVYLQMNSLKPEYTAVYYCAADYQAGDKLYDYWGQGTQVTVSS” was “low polyreactivity”.
